According to publication PMC9975939:

Biological target: T1, untagged NDP52 wild type (human), Q13137
T1 chain: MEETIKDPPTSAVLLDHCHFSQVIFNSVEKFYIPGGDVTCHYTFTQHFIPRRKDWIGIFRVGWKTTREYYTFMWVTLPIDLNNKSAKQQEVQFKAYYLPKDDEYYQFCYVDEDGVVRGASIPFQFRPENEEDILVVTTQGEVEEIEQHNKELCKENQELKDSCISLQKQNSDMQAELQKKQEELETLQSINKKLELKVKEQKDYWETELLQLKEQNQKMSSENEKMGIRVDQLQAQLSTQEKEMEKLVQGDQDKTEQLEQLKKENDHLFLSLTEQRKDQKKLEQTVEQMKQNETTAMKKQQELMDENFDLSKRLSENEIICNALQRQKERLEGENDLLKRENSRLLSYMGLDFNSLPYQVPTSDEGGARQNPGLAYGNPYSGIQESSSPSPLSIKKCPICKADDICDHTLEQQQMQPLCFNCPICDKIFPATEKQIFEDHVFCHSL
Test: native gel or EMSA; blue native PAGE (4–16% NativePAGE gel, Coomassie G-250) of recombinant NDP52 WT and Mut, immunoblot
Conditions: remark: other sources report otherwise

B1: untagged NDP52 wild type, Q13137 1-446 (natural protein)
chain: MEETIKDPPTSAVLLDHCHFSQVIFNSVEKFYIPGGDVTCHYTFTQHFIPRRKDWIGIFRVGWKTTREYYTFMWVTLPIDLNNKSAKQQEVQFKAYYLPKDDEYYQFCYVDEDGVVRGASIPFQFRPENEEDILVVTTQGEVEEIEQHNKELCKENQELKDSCISLQKQNSDMQAELQKKQEELETLQSINKKLELKVKEQKDYWETELLQLKEQNQKMSSENEKMGIRVDQLQAQLSTQEKEMEKLVQGDQDKTEQLEQLKKENDHLFLSLTEQRKDQKKLEQTVEQMKQNETTAMKKQQELMDENFDLSKRLSENEIICNALQRQKERLEGENDLLKRENSRLLSYMGLDFNSLPYQVPTSDEGGARQNPGLAYGNPYSGIQESSSPSPLSIKKCPICKADDICDHTLEQQQMQPLCFNCPICDKIFPATEKQIFEDHVFCHSL
Question: Which stoichiometry N does the source give for B1 here?
Answer: 2
